Values joined by “and” are separate entries in the source; they are usually repeats but may differ in a detail not shown here. Identical values can stand only once.

Test [1] addresses phosphomimetic Smad3 fragment S3LMH2EEE (linker and MH2 domain, amino acids 167 to 425) (human) (UniProt P84022). Description: ITC.
Test [2] addresses S3LMH2EEE/S4LMH2 heterotrimer (human) (UniProt P84022). Briefly: ITC. (In ITC the heat of successive injections is recorded.)

B1: MAN1 fragment from amino acids 755 to 911 (MAN1Luhm) (domain or fragment)
chain: DKILVIPSKVWQGQAFHLDRRNSPPNSLTPCLKIRNMFDPVMEIGDQWHLAIQEAILEKCSDNDGIVHIAVDKNSREGCVYVKCLSPEYAGKAFKALHGSWFDGKLVTVKYLRLDRYHHRFPQALTSNTPLKPSNKHMNSMSHLRLRTGLTNSQGSS
By Kd is commonly meant the constant that tells how readily two partners part at equilibrium. For the molecule B1, the Kd in test [1] is 1170 nM and 1350 nM; in test [2] it was 1500 nM and 1370 nM.

For the origin of these results see paper PMC3843637.
